According to article PMC6198961, “The dimeric structure of wild-type human glycosyltransferase B4GalT1” (PLoS ONE, 2018):

Molecular target: the molecule itself
Experiment: SEC; gel filtration on a 24 ml Superdex 200 HR 10/30 column calibrated with γ-globulin (158 kDa), ovalbumin (44 kDa) and myoglobin (17 kDa); monomer and dimer

B1: catalytic domain of human B4GalT1 (Asp99-Ser398), wild type (domain or fragment, UniProt P15291 99-398, looked up)
chain: DSSPVVDSGPGPASNLTSVPVPHTTALSLPACPEESPLLVGPMLIEFNMPVDLELVAKQNPNVKMGGRYAPRDCVSPHKVAIIIPFRNRQEHLKYWLYYLHPVLQRQQLDYGIYVINQAGDTIFNRAKLLNVGFQEALKDYDYTCFVFSDVDLIPMNDHNAYRCFSQPRHISVAMDKFGFSLPYVQYFGGVSALSKQQFLTINGFPNNYWGWGGEDDDIFNRLVFRGMSISRPNAVVGRCRMIRHSRDKKNEPNPQRFDRIAHTKETMLSDGLNSLTYQVLDVQRYPLYTQITVDIGTPS
notes: EC 2.4.1.38), human, residues Asp99-Ser398: a piece of the stem domain (Asp99-Leu125) and the catalytic domain (Ser126-Ser398); the construct's calculated molecular weight is printed as 36.35 kDa; The tag is surmised from the nickel purification; In equilibrium between monomer and dimer; also called Beta-1,4-galactosyltransferase 1; recombinant B4GalT1; source: E. coli BL21(DE3) with the CyDisCo …
  stoichiometry N: 2
